According to article PMC10897435:

T1: ACADVL (mouse), P50544
T1 chain: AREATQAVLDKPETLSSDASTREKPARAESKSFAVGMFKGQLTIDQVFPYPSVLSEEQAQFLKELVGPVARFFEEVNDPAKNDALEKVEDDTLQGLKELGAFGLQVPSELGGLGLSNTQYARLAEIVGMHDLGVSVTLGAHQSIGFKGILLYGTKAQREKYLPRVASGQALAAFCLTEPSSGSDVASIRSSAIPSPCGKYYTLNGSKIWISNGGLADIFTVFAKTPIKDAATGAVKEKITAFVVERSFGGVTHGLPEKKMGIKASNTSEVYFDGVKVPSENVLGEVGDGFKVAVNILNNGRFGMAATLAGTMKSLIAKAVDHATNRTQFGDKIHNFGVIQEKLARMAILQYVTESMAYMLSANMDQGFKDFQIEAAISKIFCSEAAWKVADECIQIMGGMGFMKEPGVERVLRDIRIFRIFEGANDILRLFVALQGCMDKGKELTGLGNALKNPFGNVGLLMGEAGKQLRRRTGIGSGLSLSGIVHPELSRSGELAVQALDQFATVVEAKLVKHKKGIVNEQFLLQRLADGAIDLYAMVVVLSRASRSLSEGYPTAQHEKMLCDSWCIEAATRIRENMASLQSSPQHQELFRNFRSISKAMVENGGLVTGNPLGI


What was measured:
[1] = biological target: complex I from ndufs4-/- mouse (heart, kidney) (mouse) (UniProt Q91YT0); test: cryo-EM structure; complex I purified whole from ndufs4-/- mouse heart, cross-linked twice with BS3 (0.25 mM during solubilisation, 2.5 mM before the grids), 0.05% DDM, PEGylated gold grids; focused classification into three classes
UniProt Q91YT0, sequence (Q91YT0 whole entry, looked up, one chain of several): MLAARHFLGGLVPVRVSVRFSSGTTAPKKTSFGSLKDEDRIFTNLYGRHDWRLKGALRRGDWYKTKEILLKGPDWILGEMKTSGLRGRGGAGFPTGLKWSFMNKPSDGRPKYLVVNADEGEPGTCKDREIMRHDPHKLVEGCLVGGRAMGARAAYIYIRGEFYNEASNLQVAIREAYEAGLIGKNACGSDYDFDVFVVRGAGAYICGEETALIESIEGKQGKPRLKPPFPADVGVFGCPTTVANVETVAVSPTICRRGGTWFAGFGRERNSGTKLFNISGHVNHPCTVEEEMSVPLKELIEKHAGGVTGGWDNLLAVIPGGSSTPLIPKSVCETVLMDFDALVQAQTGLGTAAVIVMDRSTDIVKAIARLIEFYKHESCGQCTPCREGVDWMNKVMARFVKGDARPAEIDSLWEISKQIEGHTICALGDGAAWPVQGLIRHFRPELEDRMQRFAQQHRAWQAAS

[2] = biological target: T1, ACADVL (mouse), P50544; test: as above; details: remark: other sources report otherwise

Row | Molecule | percent of the complex I particles that contain it [1] | stoichiometry N [2]
1 | assembly factor NDUFAF2 (natural protein) | 14% | 
2 | ACADVL, P50544 42-656 (natural protein) AREATQAVLDKPETLSSDASTREKPARAESKSFAVGMFKGQLTIDQVFPYPSVLSEEQAQFLKELVGPVARFFEEVNDPAKNDALEKVEDDTLQGLKELGAFGLQVPSELGGLGLSNTQYARLAEIVGMHDLGVSVTLGAHQSIGFKGILLYGTKAQREKYLPRVASGQALAAFCLTEPSSGSDVASIRSSAIPSPCGKYYTLNGSKIWISNGGLADIFTVFAKTPIKDAATGAVKEKITAFVVERSFGGVTHGLPEKKMGIKASNTSEVYFDGVKVPSENVLGEVGDGFKVAVNILNNGRFGMAATLAGTMKSLIAKAVDHATNRTQFGDKIHNFGVIQEKLARMAILQYVTESMAYMLSANMDQGFKDFQIEAAISKIFCSEAAWKVADECIQIMGGMGFMKEPGVERVLRDIRIFRIFEGANDILRLFVALQGCMDKGKELTGLGNALKNPFGNVGLLMGEAGKQLRRRTGIGSGLSLSGIVHPELSRSGELAVQALDQFATVVEAKLVKHKKGIVNEQFLLQRLADGAIDLYAMVVVLSRASRSLSEGYPTAQHEKMLCDSWCIEAATRIRENMASLQSSPQHQELFRNFRSISKAMVENGGLVTGNPLGI |  | 2
